The values that follow come from US20240360242A1 (KISOJI BIOTECHNOLOGY, published 2024).

One test addresses T1, recombinant human EpCAM (human, UniProt P16422 24-265).
T1 construct: also called rhEpCAM
T1 sequence (looked up): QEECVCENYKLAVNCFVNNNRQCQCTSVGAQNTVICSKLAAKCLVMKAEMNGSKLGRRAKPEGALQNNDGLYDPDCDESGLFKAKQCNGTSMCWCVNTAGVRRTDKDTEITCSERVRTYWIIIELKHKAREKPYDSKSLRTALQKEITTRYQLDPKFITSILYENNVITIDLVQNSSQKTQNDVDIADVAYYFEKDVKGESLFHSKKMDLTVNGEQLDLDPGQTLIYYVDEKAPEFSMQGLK
The test is described as follows: ELISA. On the technique in general: An ELISA detects its analyte on a solid surface through an enzyme-linked reagent.

For a further test, the target named is T2, human TROP2 on cells (human, UniProt P09758 27-323).
T2 construct: Full human TROP2, either transiently transfected into HEK or CHO cells or endogenous on cancer cell lines; also called HEK-TROP2; CHO-TROP2
T2 sequence: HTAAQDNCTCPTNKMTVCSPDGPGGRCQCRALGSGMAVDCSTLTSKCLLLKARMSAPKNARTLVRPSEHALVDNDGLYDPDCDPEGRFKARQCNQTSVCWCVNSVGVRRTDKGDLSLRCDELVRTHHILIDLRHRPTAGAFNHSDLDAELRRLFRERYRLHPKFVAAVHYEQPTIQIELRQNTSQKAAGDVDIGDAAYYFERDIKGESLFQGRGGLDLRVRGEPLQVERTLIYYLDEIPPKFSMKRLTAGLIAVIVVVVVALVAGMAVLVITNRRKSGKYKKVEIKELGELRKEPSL
As to the kind of experiment: flow cytometry, 100 nM antibody, transiently transfected HEK cells, APC anti-human Fc. In outline: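 HEK parental cells transiently transfected (lipofectamine) with human TROP2 truncation mutants, harvested 24 h later and Fc-blocked 10 min at RT. Anti-TROP2 sdAbs at 100 nM bound 30 min on ice, then detected with APC anti-human Fc (30 min) and 7-AAD added for viability.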
On the technique in general: In flow cytometry, cells or beads pass a laser one at a time.

B1: KD007 (antibody, human IgG1, V domains shown)
VH: QVQLQESGGGLVQPGGSLRLSCAASGFAFSFYAMAWYRQAPGKQRDMVATITAYGNTNYADSVKGRFTTSRDNAKNTVYLQMNSLKPEDTAVYVCNANLPSASHNYWGQGTQVTVSS
notes: also called anti-TROP2 sdAb KD007
Take B1: the binding result with recombinant human EpCAM is listed as “no binding”; with human TROP2 on cells it was “binds”.
